Measurements reported in paper PMC4944999 (PLoS ONE, 2016).

Biological target: PeB^GF-Lys, double substituted variant ([change], [change]) of PeB-Lys (mouse)
Assay: SPR

How did the fold amount of hemagglutinin bound compared to PeB turn out when “hemagglutinin (HA) of influenza A/NewYork/55/2004 H3N2, in monovalent split vaccine (natural protein)” was run?
The fold amount of hemagglutinin bound compared to PeB was 4 fold.
